Results on one molecule are retold here after US20100256217A1 (University of Pennsylvania, published 2010).

The assay addresses T1, human CK2β subunit, cloned from HeLa cell cDNA (pcCK2β) (human, UniProt P67870 1-215).
T1 construct: 35S-labeled in vitro translated protein in the in vitro assay; Expressed in transfected 293T cells in the in vivo assay; also called CKβ; CK2 beta
Briefly: in vitro binding assay, 35S-labeled in vitro translated proteins, co-immunoprecipitation with anti-His or anti-CK2β, autoradiography.

T1 sequence (P67870 whole entry): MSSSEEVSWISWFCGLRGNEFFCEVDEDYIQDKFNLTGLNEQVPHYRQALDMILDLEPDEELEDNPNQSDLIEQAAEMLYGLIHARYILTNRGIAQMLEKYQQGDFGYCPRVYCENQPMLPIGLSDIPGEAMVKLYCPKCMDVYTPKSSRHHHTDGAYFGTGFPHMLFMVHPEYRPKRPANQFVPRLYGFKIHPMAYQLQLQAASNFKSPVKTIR

B1: West Nile virus capsid protein with a C-terminal polyhistidine tag, encoded by pcWNV C-His (other)
chain: MSKKPGGPGKSRAVNMLKRGMPRVLSLIGLKRAMLSLIDGKGPIRFVLALLAFFRFTAIAPTRAVLDRWRGVNKQTAMKHLLSFKKELGTLTSAINRRSSKQKKRGGKTGIAVMIGLIASVGA
notes: The capsid is its N-terminal part; also called WNV Cp; protein C; not shown: C-terminal polyhistidine tag from the pcDNA3.1 V5/HisA vector
On to B1, for which the binding result is reported as “no binding”.
